Source: patent publication US20140161821A1, “TREATMENT WITH ANTI-PCSK9 ANTIBODIES” (PFIZER INC., priority 2011, published 2014)

Key:
PCSK9 = target: T1, PCSK9 (Homo sapiens, UniProt Q8NBP7); experiment: Example 2 clinical study, single escalating IV doses: fasting lipids; type: in vivo
T1 construct: PCSK9 antagonist antibody that antagonizes circulating PCSK9; endogenous in cells; host or cells: human subjects in clinical trials (in vivo, circulating PCSK9)
Procedure: The study entailed a randomized, placebo-controlled, ascending, single dose study of L1L3. The subjects, investigator, and site personnel (except site personnel responsible for drug preparation) were blinded to treatment assignments, as was the CRO designee; while the Sponsor clinical research team was unblinded. The study was conducted in 6 planned cohorts of 8 subjects per cohort in an effort to seek a maximum tolerated dose or MTD (total of approximately 48 subjects). […] Doses were administered following an overnight fast as an intravenous infusion over 60 minutes. […] Infusions will be administered as a single infusion over 60 minutes.
Change in serum lipids (total cholesterol, LDL, HDL, Triglycerides, Non-HDL-C and Apoprotein B) were assessed.
Collection of fasting lipid profile was performed after at least a 10-hour fast (total cholesterol, LDL, HDL, Non-HDL Cholesterol, Apo B and triglycerides).

[1] = Example 3 clinical study: safety and adverse events; type: in vivo, human
Procedure: In the study, the incidence of subjects meeting toxicity or intolerable dose criteria was measured. Incidence of treatment emergent adverse events (TEAEs) categorized by severity and causal relationship to study drug was also be measured. The timeframe for measurement of each of the above outcomes was two months.

[2] = single IV 0.5 or 4 mg/kg + atorvastatin 40 mg daily

T1 sequence (Q8NBP7 153-692): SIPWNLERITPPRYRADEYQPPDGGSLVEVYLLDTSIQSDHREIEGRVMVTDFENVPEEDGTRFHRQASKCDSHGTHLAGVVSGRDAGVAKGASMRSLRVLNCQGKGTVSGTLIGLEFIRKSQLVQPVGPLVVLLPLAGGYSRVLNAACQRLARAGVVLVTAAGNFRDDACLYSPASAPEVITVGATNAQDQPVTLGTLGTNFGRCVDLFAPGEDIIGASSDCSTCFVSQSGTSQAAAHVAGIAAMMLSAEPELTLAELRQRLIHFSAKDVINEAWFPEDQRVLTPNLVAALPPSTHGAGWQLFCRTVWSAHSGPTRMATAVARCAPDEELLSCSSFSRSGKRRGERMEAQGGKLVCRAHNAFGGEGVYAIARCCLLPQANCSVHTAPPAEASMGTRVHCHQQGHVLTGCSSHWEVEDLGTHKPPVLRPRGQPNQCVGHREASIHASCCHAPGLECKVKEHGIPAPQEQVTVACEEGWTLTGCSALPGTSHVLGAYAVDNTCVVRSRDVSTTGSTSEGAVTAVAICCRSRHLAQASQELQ
T1 sequence (Q8NBP7 31-152 partner limits assumed): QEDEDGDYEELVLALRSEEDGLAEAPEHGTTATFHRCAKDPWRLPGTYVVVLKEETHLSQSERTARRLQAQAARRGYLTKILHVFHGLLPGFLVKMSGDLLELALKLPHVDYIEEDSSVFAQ

B1: L1L3: humanized (<5% murine residues) monoclonal PCSK9 antagonist antibody that binds to secreted PCSK9; VH SEQ ID NO: 11, VL SEQ ID NO: 12 (antibody, V domains shown)
VH: QVQLVQSGAEVKKPGASVKVSCKASGYTFTSYYMHWVRQAPGQGLEWMGEISPFGGRTNYNEKFKSRVTMTRDTSTSTVYMELSSLRSEDTAVYYCARERPLYASDLWGQGTTVTVSS
VL: DIQMTQSPSSLSASVGDRVTITCRASQGISSALAWYQQKPGKAPKLLIYSASYRYTGVPSRFSGSGSGTDFTFTISSLQPEDIATYYCQQRYSLWRTFGQGTKLEIK
modifications: heavy chain variable region; light chain variable region
mean percentage change from baseline of fasting LDL-C (PCSK9; single IV 0.3 mg/kg, visit day 3): −14.13% | mean percentage change from baseline of fasting LDL-C (PCSK9; single IV 0.3 mg/kg, visit day 4): −30.14% | mean percentage change from baseline of fasting LDL-C (PCSK9; single IV 0.3 mg/kg, visit day 8): −42.86% | mean percentage change from baseline of fasting LDL-C (PCSK9; single IV 0.3 mg/kg, visit day 15): −23.68% | mean percentage change from baseline of fasting LDL-C (PCSK9; single IV 0.3 mg/kg, visit day 22): −11.36% | mean percentage change from baseline of fasting LDL-C (PCSK9; single IV 0.3 mg/kg, visit day 29): −9.12% | mean percentage change from baseline of fasting LDL-C (PCSK9; single IV 1 mg/kg, visit day 1): 0.000% | mean percentage change from baseline of fasting LDL-C (PCSK9; single IV 1 mg/kg, visit day 2): −0.33% | mean percentage change from baseline of fasting LDL-C (PCSK9; single IV 1 mg/kg, visit day 3): −9.79% | mean percentage change from baseline of fasting LDL-C (PCSK9; single IV 1 mg/kg, visit day 4): −19.14% | mean percentage change from baseline of fasting LDL-C (PCSK9; single IV 1 mg/kg, visit day 8): −33.33% | mean percentage change from baseline of fasting LDL-C (PCSK9; single IV 1 mg/kg, visit day 15): −50.50% | mean percentage change from baseline of fasting LDL-C (PCSK9; single IV 1 mg/kg, visit day 22): −22.40% | mean percentage change from baseline of fasting LDL-C (PCSK9; single IV 1 mg/kg, visit day 29): −3.36% | mean percentage change from baseline of fasting LDL-C (PCSK9; single IV 3 mg/kg, visit day 1): 0.000% | mean percentage change from baseline of fasting LDL-C (PCSK9; single IV 3 mg/kg, visit day 2): −1.97% | mean percentage change from baseline of fasting LDL-C (PCSK9; single IV 3 mg/kg, visit day 3): −13.20% | mean percentage change from baseline of fasting LDL-C (PCSK9; single IV 3 mg/kg, visit day 4): −19.10% | mean percentage change from baseline of fasting LDL-C (PCSK9; single IV 3 mg/kg, visit day 8): −39.78% | mean percentage change from baseline of fasting LDL-C (PCSK9; single IV 3 mg/kg, visit day 15): −57.93% | mean percentage change from baseline of fasting LDL-C (PCSK9; single IV 3 mg/kg, visit day 22): −65.09% | mean percentage change from baseline of fasting LDL-C (PCSK9; single IV 3 mg/kg, visit day 29): −64.77% | mean percentage change from baseline of fasting LDL-C (PCSK9; single IV 3 mg/kg, visit day 43): −27.56% | mean percentage change from baseline of fasting LDL-C (PCSK9; single IV 6 mg/kg, visit day 1): 0.000% | mean percentage change from baseline of fasting LDL-C (PCSK9; single IV 6 mg/kg, visit day 2): −1.44% | mean percentage change from baseline of fasting LDL-C (PCSK9; single IV 6 mg/kg, visit day 3): −9.23% | mean percentage change from baseline of fasting LDL-C (PCSK9; single IV 6 mg/kg, visit day 4): −18.80% | mean percentage change from baseline of fasting LDL-C (PCSK9; single IV 6 mg/kg, visit day 8): −43.77% | mean percentage change from baseline of fasting LDL-C (PCSK9; single IV 6 mg/kg, visit day 15): −61.52% | mean percentage change from baseline of fasting LDL-C (PCSK9; single IV 6 mg/kg, visit day 22): −68.92% | mean percentage change from baseline of fasting LDL-C (PCSK9; single IV 6 mg/kg, visit day 29): −64.19% | mean percentage change from baseline of fasting LDL-C (PCSK9; single IV 6 mg/kg, visit day 36): −67.70% | mean percentage change from baseline of fasting LDL-C (PCSK9; single IV 6 mg/kg, visit day 43): −64.18% | mean percentage change from baseline of fasting LDL-C (PCSK9; single IV 6 mg/kg, visit day 50): −49.17% | mean percentage change from baseline of fasting LDL-C (PCSK9; single IV 6 mg/kg, visit day 57): −36.12% | mean percentage change from baseline of fasting LDL-C (PCSK9; single IV 12 mg/kg, visit day 1): 0.000% | mean percentage change from baseline of fasting LDL-C (PCSK9; single IV 12 mg/kg, visit day 2): −8.26% | mean percentage change from baseline of fasting LDL-C (PCSK9; single IV 12 mg/kg, visit day 3): −14.05% | mean percentage change from baseline of fasting LDL-C (PCSK9; single IV 12 mg/kg, visit day 4): −23.23% | mean percentage change from baseline of fasting LDL-C (PCSK9; single IV 12 mg/kg, visit day 8): −37.96% | mean percentage change from baseline of fasting LDL-C (PCSK9; single IV 12 mg/kg, visit day 15): −66.25% | mean percentage change from baseline of fasting LDL-C (PCSK9; single IV 12 mg/kg, visit day 22): −59.79% | mean percentage change from baseline of fasting LDL-C (PCSK9; single IV 12 mg/kg, visit day 29): −74.67% | mean percentage change from baseline of fasting LDL-C (PCSK9; single IV 12 mg/kg, visit day 36): −65.23% | mean percentage change from baseline of fasting LDL-C (PCSK9; single IV 12 mg/kg, visit day 43): −69.31% | mean percentage change from baseline of fasting LDL-C (PCSK9; single IV 12 mg/kg, visit day 50): −56.08% | mean percentage change from baseline of fasting LDL-C (PCSK9; single IV 12 mg/kg, visit day 57): −63.10% | mean percentage change from baseline of fasting LDL-C (PCSK9; single IV 18 mg/kg, visit day 1): 0.000% | mean percentage change from baseline of fasting LDL-C (PCSK9; single IV 18 mg/kg, visit day 2): −11.52% | mean percentage change from baseline of fasting LDL-C (PCSK9; single IV 18 mg/kg, visit day 3): −22.43% | mean percentage change from baseline of fasting LDL-C (PCSK9; single IV 18 mg/kg, visit day 4): −34.36% | mean percentage change from baseline of fasting LDL-C (PCSK9; single IV 18 mg/kg, visit day 8): −43.70% | mean percentage change from baseline of fasting LDL-C (PCSK9; single IV 18 mg/kg, visit day 15): −82.89% | mean percentage change from baseline of fasting LDL-C (PCSK9; single IV 18 mg/kg, visit day 22): −72.97% | mean percentage change from baseline of fasting LDL-C (PCSK9; single IV 18 mg/kg, visit day 29): −67.40% | mean percentage change from baseline of fasting LDL-C (PCSK9; single IV 18 mg/kg, visit day 36): −61.47% | mean percentage change from baseline of fasting LDL-C (PCSK9; single IV 18 mg/kg, visit day 43): −80.21% | Fasting triglyceride (TGs) levels (PCSK9; single IV 0.3-18 mg/kg, baseline 173 mg/dL): remained unchanged | High density lipoprotein cholesterol (HDL-C) levels (PCSK9; single IV 0.3-18 mg/kg, baseline about 49 mg/dL): did not change significantly | Discontinued subjects [1, 2]: no discontinued subjects | Intensity of TEAEs [1, 2]: none were severe in intensity | Serious adverse events (SAE) [1, 2]: one serious adverse event (SAE), i.e. worsening of migraine headache, which was not drug-related | Alanine aminotransferase (ALT) and/or aspartate aminotransferase (AST) elevation (TEAEs) ([1]; transient, without clinical signs/symptoms, all resolved within one week): greater than 3 ×ULN
